Laboratory results reported in the supplement of paper PMC11246515.
± gives the standard deviation of the averaged measurements.

Assay: total protein half-life in vivo (active degradation + dilution); higher = more stable protein
[1] = E. coli NCM3722 delta-clpP delta-lon delta-hslV, growth: N-lim chemostat, doubling time 6 h
[2] = E. coli NCM3722 delta-clpP, growth: N-lim chemostat, doubling time 6 h
[3] = E. coli NCM3722 delta-hslV, growth: N-lim chemostat, doubling time 6 h
[4] = E. coli NCM3722 delta-lon, growth: N-lim chemostat, doubling time 6 h
[5] = E. coli NCM3722 delta-smpB, growth: N-lim chemostat, doubling time 6 h
[6] = wild type E. coli NCM3722, growth: C-lim chemostat, doubling time 3 h
[7] = wild type E. coli NCM3722, growth: C-lim chemostat, doubling time 6 h
[8] = wild type E. coli NCM3722, growth: C-lim chemostat, doubling time 12 h
[9] = wild type E. coli NCM3722, growth: N-lim chemostat, doubling time 6 h
[10] = wild type E. coli NCM3722, growth: N-lim chemostat, doubling time 12 h
[11] = wild type E. coli NCM3722, growth: P-lim chemostat, doubling time 6 h
[12] = wild type E. coli NCM3722, growth: P-lim chemostat, doubling time 12 h

Sequence | total protein half-life in vivo [1] [h] | total protein half-life in vivo [2] [h] | total protein half-life in vivo [3] [h] | total protein half-life in vivo [4] [h] | total protein half-life in vivo [5] [h] | total protein half-life in vivo [6] [h] | total protein half-life in vivo [7] [h] | total protein half-life in vivo [8] [h] | total protein half-life in vivo [9] [h] | total protein half-life in vivo [10] [h] | total protein half-life in vivo [11] [h] | total protein half-life in vivo [12] [h]
MYQHHNWQGALLDYPVSKVVCVGSNYAKHIKEMGSAVPEEPVLFIKPETALCDLRQPLAIPSDFGSVHHEVELAVLIGATLRQATEEHVRKAIAGYGVALDLTLRDVQGKMKKAGQPWEKAKAFDNSCPLSGFIPAAEFTGDPQNTTLSLSVNGEQRQQGTTADMIHKIVPLIAYMSKFFTLKAGDVVLTGTPDGVGPLQSGDELTVTFDGHSLTTRVL | 6.01 ± 0.48 | 4.64 ± 0.98 | 5.44 ± 0.96 | 5.67 ± 0.93 | 4.95 ± 0.3 | 3.26 ± 0.39 | 6.22 ± 0.61 | 11.2 ± 0.037 | 5.18 ± 0.86 | 10.1 ± 0.033 | 5.856 ± 0.052 | 12.6 ± 0.54
MNNPAMTIKGEQAKKQLIAAALAQFGEYGMNATTREIAAQAGQNIAAITYYFGSKEDLYLACAQWIADFIGEQFRPHAEEAERLFAQPQPDRAAIRELILRACRNMIKLLTQDDTVNLSKFISREQLSPTAAYHLVHEQVISPLHSHLTRLIAAWTGCDANDTRMILHTHALIGEILAFRLGKETILLRTGWTAFDEEKTELINQTVTCHIDLILQGLSQRSL [P0ACU0] | 5.84 ± 0.3 | 5.34 ± 0.68 | 4.74 ± 0.24 | – | 4.47 ± 0.15 | 2.49 ± 0.42 | 5.25 ± 0.066 | – | 4.76 ± 0.33 | 7.67 ± 0.31 | 4.47 ± 0.36 | 10.4 ± 0.78
MIEFKNVSKHFGPTQVLHNIDLNIAQGEVVVIIGPSGSGKSTLLRCINKLEEITSGDLIVDGLKVNDPKVDERLIRQEAGMVFQQFYLFPHLTALENVMFGPLRVRGANKEEAEKLARELLAKVGLAERAHHYPSELSGGQQQRVAIARALAVKPKMMLFDEPTSALDPELRHEVLKVMQDLAEEGMTMVIVTHEIGFAEKVASRLIFIDKGRIAEDGNPQVLIKNPPSQRLQEFLQHVS | 6.81 ± 0.9 | 5.7293 ± 0.0055 | 5.292 ± 0.039 | 5.12 ± 0.18 | 5.72 ± 0.6 | 2.93 ± 0.62 | 4.88 ± 1.6 | 11.9 ± 0.78 | 6.79 | 11.5 ± 0.64 | 5.25 | 12.5 ± 0.99
MRKGCFGLVSLVLLLLVGCRSHPEIPVNDEQSLVMESSLLAAGISAEKPFLSTSDIQPSASSTLYNERQEPVTVHYRFYWYDARGLEMHPLERPRSVTIPAHSAVTLYGSANFLGAHKVRLYLYL | 5.4 ± 0.33 | – | 5.89 ± 0.42 | 5.86 ± 0.36 | 5.34 ± 0.22 | 2.84 | 5.52 | 9.893 ± 0.025 | 5.33 | 10.1 | 5.79 | 11.8 ± 0.32
MSLWKKISLGVVIVILLLLGSVAFLVGTTSGLHLVFKAADRWVPGLDIGKVTGGWRDLTLSDVRYEQPGVAVKAGNLHLAVGLECLWNSSVCINDLALKDIQVNIDSKKMPPSEQVEEEEDSGPLDLSTPYPITLTRVALDNVNIKIDDTTVSVMDFTSGLNWQEKTLTLKPTSLKGLLIALPKVAEVAQEEVVEPKIENPQPDEKPLGETLKDLFSRPVLPEMTDVHLPLNLNIEEFKGEQLRVTGDTDITVSTMLLKVSSIDGNTKLDALDIDSSQGIVNASGTAQLSDNWPVDITLNSTLNVEPLKGEKVKLKMGGALREQLEIGVNLSGPVDMDLRAQTRLAEAGLPLNVEVNSKQLYWPFTGEKQYQADDLKLKLTGKMTDYTLSMRTAVKGQEIPPATITLDAKGNEQQVNLDKLTVAALEGKTELKALLDWQQAISWRGELTLNGINTAKEFPDWPSKLNGLIKTRGSLYGGTWQMDVPELKLTGNVKQNKVNVDGTLKGNSYMQWMIPGLHLELGPNSAEVKGELGVKDLNLDATINAPGLDNALPGLGGTAKGLVKVRGTVEAPQLLADITARGLRWQELSVAQVRVEGDIKSTDQIAGKLDVRVEQISQPDVNINLVTLNAKGSEKQHELQLRIQGEPVSGQLNLAGSFDRKEERWKGTLSNTRFQTPVGPWSLTRDIALDYRNKEQKISIGPHCWLNPNAELCVPQTIDAGAEGRAVVNLNRFDLAMLKPFMPETTQASGIFTGKADVAWDTTKEGLPQGSITLSGRNVQVTQTVNDAALPVAFQTLNLTAELRNNRAELGWTIRLTNNGQFDGQVQVTDPQGRRNLGGNVNIRNFNLAMINPIFTRGEKAAGMVSANLRLGGDVQSPQLFGQLQVTGVDIDGNFMPFDMQPSQLAVNFNGMRSTLAGTVRTQQGEIYLNGDADWSQIENWRARVTAKGSKVRITVPPMVRMDVSPDVVFEATPNLFTLDGRVDVPWARIVVHDLPESAVGVSSDVVMLNDNLQPEEPKTASIPINSNLIVHVGNNVRIDAFGLKARLTGDLNVVQDKQGLGLNGQINIPEGRFHAYGQDLIVRKGELLFSGPPDQPYLNIEAIRNPDATEDDVIAGVRVTGLADEPKAEIFSDPAMSQQAALSYLLRGQGLESDQSDSAAMTSMLIGLGVAQSGQIVGKIGETFGVSNLALDTQGVGDSSQVVVSGYVLPGLQVKYGVGIFDSIATLTLRYRLMPKLYLEAVSGVDQALDLLYQFEF | 5.88 ± 0.49 | 6.03 ± 0.44 | 6.95 ± 0.39 | 6.374 ± 0.041 | 5.69 ± 0.29 | 3.04 ± 0.044 | 5.97 ± 0.5 | 11.7 ± 1.2 | 6.2514 ± 0.0027 | 12.1 ± 0.24 | 5.992 ± 0.026 | 12.22 ± 0.066
MSASALVCLAPGSEETEAVTTIDLLVRGGIKVTTASVASDGNLAITCSRGVKLLADAPLVEVADGEYDVIVLPGGIKGAECFRDSTLLVETVKQFHRSGRIVAAICAAPATVLVPHDIFPIGNMTGFPTLKDKIPAEQWLDKRVVWDARVKLLTSQGPGTAIDFGLKIIDLLVGREKAHEVASQLVMAAGIYNYYE | 5.064 ± 0.047 | – | 5.39 ± 1.1 | 4.534 ± 0.022 | 4.23 ± 0.24 | 2.69 ± 0.31 | 5.15 ± 0.32 | 9.53 ± 0.47 | 4.21 ± 0.22 | 7.09 ± 0.18 | 5.81 ± 0.065 | –
MKEKPAVEVRLDKWLWAARFYKTRALAREMIEGGKVHYNGQRSKPSKIVELNATLTLRQGNDERTVIVKAITEQRRPASEAALLYEETAESVEKREKMALARKLNALTMPHPDRRPDKKERRDLLRFKHGDSE [P0ACG8] | 6.23 ± 0.21 | – | – | 5.39 | 3.67 | 2.91 | 5.7 ± 1.5 | 6.7 | 4.16 | 6.59 | – | 7.24
MSVPLILTILAGAATFIGAFLGVLGQKPSNRLLAFSLGFAAGIMLLISLMEMLPAALAAEGMSPVLGYGMFIFGLLGYFGLDRMLPHAHPQDLMQKSVQPLPKSIKRTAILLTLGISLHNFPEGIATFVTASSNLELGFGIALAVALHNIPEGLAVAGPVYAATGSKRTAILWAGISGLAEILGGVLAWLILGSMISPVVMAAIMAAVAGIMVALSVDELMPLAKEIDPNNNPSYGVLCGMSVMGFSLVLLQTAGIG [P0A8H3] | 1.91 | 1.38 | 1.59 ± 0.2 | 2.14 ± 0.3 | 1.65 ± 0.083 | 0.41 | 0.83 | – | 1.7 | 2.45 | – | –
